Literature values as cited in patent publication US20050255458A1, “Drug discovery assays based on the biology of chronic disease” (priority 2002, published 2005).

B1: IL-1α: interleukin 1α cytokine (protein, UniProt P01583 113-271, looked up)
Interleukin-1 alpha: SAPFSFLSNVKYNFMRIIKYEFILNDALNQSIIRANDQYLTAAALHNLDEAVKFDMGAYKSSKDDAKITVILRISKTQLYVTAQDEDQPVLLKEMPEIPKTITGSETNLLFFWETHGTKNYFTSVAHPNLFIATKQDYWVCLAGGPPSITDFQILENQA
B2: soluble TF: soluble tissue factor (protein, UniProt P13726 33-251, looked up)
extracellular domain: SGTTNTVAAYNLTWKSTNFKTILEWEPKPVNQVYTVQISTKSGDWKSKCFYTTDTECDLTDEIVKDVKQTYLARVFSYPAGNVESTGSAGEPLYENSPEFTPYLETNLGQPTIQSFEQVGTKVNVTVEDERTLVRRNNTFLSLRDVFGKDLIYTLYYWKSSSSGKKTAKTNTNEFLIDVDKGENYCFSVQAVIPSRTVNRKSTDSPVECMGQEKGEFRE
modifications: extracellular domain
notes: soluble tissue factor

How the values were obtained:
anagen hair follicles = conditions: Philpott 1996
[1] = system: reverse transmigration of PBMC across HUVEC

Molecule | scalp hair growth (anagen hair follicles) | inhibition of reverse transendothelial migration [1] [%]
B1 | inhibition of scalp hair growth | 
B2 |  | 69±2
